Tests used:
AlkB [1] = target: T1, AlkB (Escherichia coli, UniProt P05050 1-216); test: stopped-flow Trp fluorescence, from rate constants of steps 1-3; Fe(II), aKG; 50 mM HEPES-KOH pH 7.5, 50 mM KCl, 10 mM MgCl2, 40 uM Fe(II), 1 mM aKG, 2 mM ascorbate (composition as given for the anaerobic runs); stopped-flow at 37 C; titration temperature not given in the material; settings: protein: recombinant; tags: His6; single strand
T1 sequence: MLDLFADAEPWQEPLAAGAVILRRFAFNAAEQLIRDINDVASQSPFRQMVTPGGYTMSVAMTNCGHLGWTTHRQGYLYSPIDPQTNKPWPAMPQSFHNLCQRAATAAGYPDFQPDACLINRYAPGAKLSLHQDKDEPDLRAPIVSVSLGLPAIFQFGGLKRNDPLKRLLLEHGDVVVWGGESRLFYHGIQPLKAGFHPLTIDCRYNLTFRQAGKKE

AlkB [2] = target: T1, AlkB; test: stopped-flow 2aPu fluorescence, global fit (enzyme-product complex); Fe(II), aKG; after turnover; 50 mM HEPES-KOH pH 7.5, 50 mM KCl, 10 mM MgCl2, 40 uM Fe(II), 1 mM aKG, 2 mM ascorbate (composition as given for the anaerobic runs); stopped-flow at 37 C; titration temperature not given in the material; settings: protein: recombinant, tags: His6, label: 2-aminopurine
AlkB [3] = target: T1, AlkB; test: stopped-flow FRET, global fit (enzyme-product complex); Fe(II), aKG; after turnover; 50 mM HEPES-KOH pH 7.5, 50 mM KCl, 10 mM MgCl2, 40 uM Fe(II), 1 mM aKG, 2 mM ascorbate (composition as given for the anaerobic runs); stopped-flow at 37 C; titration temperature not given in the material; settings: protein: recombinant, tags: His6, label: 5'-FAM
AlkB [4] = target: T1, AlkB; test: stopped-flow FRET; Fe(II), aKG; 50 mM HEPES-KOH pH 7.5, 50 mM KCl, 10 mM MgCl2, 40 uM Fe(II), 1 mM aKG, 2 mM ascorbate (composition as given for the anaerobic runs); stopped-flow at 37 C; titration temperature not given in the material; settings: protein: recombinant; tags: His6; label: 5'-FAM, 3'-BHQ1 on strand 1; blunt

ACAGGATCCGGCATA (ssDNA, N1-methyladenine at position 6) [ss15m1A]
Kd (AlkB [1]): 4.3 nM

ACAGGAACCGGCATA (ssDNA, 2-aminopurine at position 7 (written A)) [ss15A_2aPu (demethylated product of ss15m1A_2aPu)]
Kd (AlkB [2]; single strand): 2200 nM

ACAGGATCCGGCATA (ssDNA) [ss15A_FRET (demethylated product of ss15m1A_FRET)]
Kd (AlkB [3]; 3'-BHQ1, single strand): 310 nM

B1: ds15A_2aPu (demethylated product of ds15m1A_2aPu) (dsDNA)
DNA 1: ACAGGAACCGGCATA
DNA 2: TATGCCGGTTCCTGT
modifications: 2-aminopurine at position 7 of strand 1 (written A)
Kd (AlkB [2]; blunt): 1800 nM

B2: ds15A_FRET (demethylated product of ds15m1A_FRET) (dsDNA)
DNA 1: ACAGGATCCGGCATA
DNA 2: TATGCCGGATCCTGT
Kd (AlkB [3]; 3'-BHQ1 on strand 1, blunt): 4400 nM

B3: ds15m1A_FRET (dsDNA)
DNA 1: ACAGGATCCGGCATA
DNA 2: TATGCCGGATCCTGT
modifications: N1-methyladenine at position 6 of strand 1
binding result (AlkB [4]): binds

From publication PMC6943663, “A Single-Turnover Kinetic Study of DNA Demethylation Catalyzed by Fe(II)/α-Ketoglutarate-Dependent Dioxygenase AlkB”
